B1: LINE1-mini (parent)
chain: GGCAGAGCUCAACACAGCGUGGCAAAGUGGCUGUGGCUAGACUGCC

Variants of: B1
Experiment: self-cleavage, relative activity (ratio to wild type); higher = more cleavage; in vitro, sequencing; the parent is a self-cleaving ribozyme

In order of rising self-cleavage:
1. GGCAGAGCUCAACACAGCGUGACAAAGUGGCUGUGGCUAGACGGCC [G22A U43G]  0
2. GGCAGAUCUCCACACAGCGUGGCAAAGUGGCUGUGGCUAGACUGCC [G7U A11C]  0.02
3. GGCAGAGCUAAACACAGCGUGGCAAAGUGGCUCUGGCUAGACUGCC [C10A G33C]  0.03
4. GUCAGAGCUCAACACAGCGUGGCAAAGUGGCUAUGGCUAGACUGCC [G2U G33A]  0.03
5. CGCAGAGCUCAACACAGCGUGGCAAAGUGGCUGCGGCUAGACUGCC [G1C U34C]  0.03
6. GGCAGAGCUCAACACAGCGUGGCAAAGGGGCUGUGGGUAGACUGCC [U28G C37G]  0.03
7. GGCAGUGCUCACCACAGCGUGGCAAAGUGGCUGUGGCUAGACUGCC [A6U A12C]  0.04
8. GGCAGAGCUCAACACAGCGUGGCCAAGUGGCUGUGGCUAGAGUGCC [A24C C42G]  0.05
9. GGCAGAGCUCAACACAGCGUGGCAAAGGGGCAGUGGCUAGACUGCC [U28G U32A]  0.05
10. GGCAGAGCUCAACACAGAGUGGCAAAGUGGCUGUGGCUGGACUGCC [C18A A39G]  0.05
11. GGCAGAGCUCAACACAGCGUGGCAAAGUGGCUAUGGCUAGAGUGCC [G33A C42G]  0.06
12. GGCAGAGCUCAACACAGCGUGGCAAAGUGCCUAUGGCUAGACUGCC [G30C G33A]  0.06
13. GGCAGAGCUCAACUCAGCGUGGCAAAGUGGCUGUGGCUGGACUGCC [A14U A39G]  0.06
14. GGCAGAGCUCAACAAAGCGUGGCAAAGUGGCUGUGUCUAGACUGCC [C15A G36U]  0.06
15. GGCAGAGCUCAACGCUGCGUGGCAAAGUGGCUGUGGCUAGACUGCC [A14G A16U]  0.06
16. GGCAGAGCUUAACACCGCGUGGCAAAGUGGCUGUGGCUAGACUGCC [C10U A16C]  0.06
17. GCCAGAACUCAACACAGCGUGGCAAAGUGGCUGUGGCUAGACUGCC [G2C G7A]  0.06
18. GUCAGAGCACAACACAGCGUGGCAAAGUGGCUGUGGCUAGACUGCC [G2U U9A]  0.06
19. GGCAGAGCUCAACACAGCGUGGCAAAGGGGCUGUGGCUAGACAGCC [U28G U43A]  0.06
20. GGCAGAGCGCAACUCAGCGUGGCAAAGUGGCUGUGGCUAGACUGCC [U9G A14U]  0.06
21. GGCAGAGCUCAACACAGCGUGGCAAAGUGGCUUUGGCUAGACUGCU [G33U C46U]  0.07
22. GGCAGAGCUCAACCCAGCGUGGCAAAGUGGCUGUGGCUAUACUGCC [A14C G40U]  0.07
23. AGCAGAGCUCAACACAGCGUGGCAAAGUGGCUGUGGCUACACUGCC [G1A G40C]  0.07
24. GGCAGAGCUCAAAACAGCGUGGCAAAGUGGCUAUGGCUAGACUGCC [C13A G33A]  0.08
25. GGCAGAGCUCAACACAGCGUGGCAAAGUGGCUGUGGCUAGACAGAC [U43A C45A]  0.08
26. GGCAGAGCUCAACACAGCGUGGCAAAGUGGCUGUGGGUAGACCGCC [C37G U43C]  0.09
27. GGCAGAGCUCAAGACAGCGUGGCAAAGUGGCUGUGGCUGGACUGCC [C13G A39G]  0.09
28. GUCAGAGCUCAACACAGCGUGGCAAAGUGGCUGUGGCUAGACUGCC [G2U]  0.09
29. GGAAGAGCUCAACACAGCGUGGCAAAGUGGCUCUGGCUAGACUGCC [C3A G33C]  0.1
30. GGCAGGGCUCAACACAGCGUGGUAAAGUGGCUGUGGCUAGACUGCC [A6G C23U]  0.1
31. GUCAGAGUUCAACACAGCGUGGCAAAGUGGCUGUGGCUAGACUGCC [G2U C8U]  0.1
32. GGCAGAGCUCAACACAGCGUGGCAAAGUGGAUGUGGCUAGACUGCU [C31A C46U]  0.11
33. GGCAGAGCUCAAGACAGCGUGGCAAAGUCGCUGUGGCUAGACUGCC [C13G G29C]  0.11
34. GGCAGAGGUCAACACAGCGUGGCACAGUGGCUGUGGCUAGACUGCC [C8G A25C]  0.11
35. CGCCGAGCUCAACACAGCGUGGCAAAGUGGCUGUGGCUAGACUGCC [G1C A4C]  0.12
36. GGCAGAGCUCAACACAGCGUGGCAUAGUGGCUAUGGCUAGACUGCC [A25U G33A]  0.12
37. GGCAGAGCUCAACACAGCGUGGCAAAGUGGCUGGGGCUAGACUGCG [U34G C46G]  0.14
38. GGCAGAGCACAACACAGCGUGGCAAAGUGGCUGUGGCUAGACCGCC [U9A U43C]  0.14
39. GGAAGAGCUCAACACAGCGUGGCAAAGUGGCGGUGGCUAGACUGCC [C3A U32G]  0.15
40. GGCAGUGCUCAACAAAGCGUGGCAAAGUGGCUGUGGCUAGACUGCC [A6U C15A]  0.16
41. GGCAGAGCUCAACACAGCGUGGCAAAGUGGCUGUGGCUAGACGGCA [U43G C46A]  0.18
42. GGCAGAGCUCAACACAGCGCGCCAAAGUGGCUGUGGCUAGACUGCC [U20C G22C]  0.19
43. GGCAGAGUUCAACACAGCGUGGCAAAGUGGCUGUGGUUAGACUGCC [C8U C37U]  0.2
44. GGCAGAGCUCAACACAGCGUGGCAAAGUCGCUGUGGCUAGAUUGCC [G29C C42U]  0.22
45. GGCAGAGCACAACACAGCGUGGCAAAGUGGCUGUGGCUAGACUGUC [U9A C45U]  0.28
46. GGGAGAGCUCAACACAGCGUGGCAAAGUGGCUGUUGCUAGACUGCC [C3G G35U]  0.28
47. GGCAGAGCUCAACACAGCGUGGCAAAGUGGCUGUGGCUAGACGGAC [U43G C45A]  0.32
48. GGCCGAGCUCAAUACAGCGUGGCAAAGUGGCUGUGGCUAGACUGCC [A4C C13U]  0.35
49. GGCAUAGCACAACACAGCGUGGCAAAGUGGCUGUGGCUAGACUGCC [G5U U9A]  0.36
50. GGCAGAGCUCAACACUGCGUGGCAAAGUUGCUGUGGCUAGACUGCC [A16U G29U]  0.39
51. GGCAGCGCUCAACAUAGCGUGGCAAAGUGGCUGUGGCUAGACUGCC [A6C C15U]  0.66
52. GGCAGAGCUCAACACGGCGUGACAAAGUGGCUGUGGCUAGACUGCC [A16G G22A]  0.71
53. GGCAGUGCUCAACACAGCGUGGCAAAGUGGCUGUGGCUAGACUGCA [A6U C46A]  0.74
54. GGCAGAGCUCAACACAGCGUGCCCAAGUGGCUGUGGCUAGACUGCC [G22C A24C]  0.85
55. GGCAGAGCUCAACACGGCAUGGCAAAGUGGCUGUGGCUAGACUGCC [A16G G19A]  1.31
56. GGCAGAGCUCAACACAGCGUGGCUAAGUGGCUGUGGCCAGACUGCC [A24U U38C]  1.36
